This is an account of results in paper PMC7466717, “PPARγ Transcription Deficiency Exacerbates High-Fat Diet-Induced Adipocyte Hypertrophy and Insulin Resistance in Mice” (Frontiers in Pharmacology, 2020).

Ends that are not written are not given here.

In this test the target is T1, H6-PPARγ CDE wild-type (human PPARγ, domains from DBD to the C-terminus, residues 103–477) (human, UniProt P37231-2 103-477).
T1 construct: Human PPARγ, CDE domains (DBD, hinge, LBD to the C-terminus), residues 103-477; a C-terminus at 477 fits the 477-residue PPARγ1 isoform; Expressed from pET24a as an N-terminal 6xHis fusion; also called H6-PPARγ CDE WT; PPARγ CDE WT; source: E. coli BL21(DE3), purified (Ni HiTrap HP, SP-Sepharose); not shown: His6, N-terminal, kept
T1 sequence (looked up): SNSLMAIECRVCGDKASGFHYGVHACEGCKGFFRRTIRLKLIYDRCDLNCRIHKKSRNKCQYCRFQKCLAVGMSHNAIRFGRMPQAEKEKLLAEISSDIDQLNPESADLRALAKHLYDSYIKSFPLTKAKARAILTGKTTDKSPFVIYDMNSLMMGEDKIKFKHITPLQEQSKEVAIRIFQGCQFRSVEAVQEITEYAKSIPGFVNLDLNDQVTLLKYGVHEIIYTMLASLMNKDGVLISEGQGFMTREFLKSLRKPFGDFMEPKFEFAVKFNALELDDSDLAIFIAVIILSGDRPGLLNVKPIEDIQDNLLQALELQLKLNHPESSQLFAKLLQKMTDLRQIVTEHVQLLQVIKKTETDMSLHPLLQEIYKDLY
Put plainly: AlphaScreen or HTRF; 100 nM H6-PPARγ CDE, 100 nM biotin-labeled peptide, gradient doses of rosiglitazone; hexahistidine detection kit (Perkin-Elmer); 50 mmol/L MOPS, 50 mmol/L NaF, 0.05 mmol/L CHAPS, 0.1 mg/ml bovine serum albumin, pH 7.4. Particulars: both partners purified.

B1: biotin-labeled NCoR-2 corepressor peptide (peptide)
peptide: GHSFADPASNLGLEDIIRKALMGSF
modifications: also: biotin label, position not given here
notes: not the gene NCOR2/SMRT
Regarding B1, the binding result is “binds”.

B2: biotin-labeled SRC1-2 coactivator peptide (peptide)
peptide: SPSSHSSLTERHKILHRLLQEGSP
modifications: also: biotin label, position not given here
With B2, the binding result is “binds”.

B3: biotin-labeled SRC2-3 coactivator peptide (peptide)
peptide: QEPVSPKKKENALLRYLLDKDDTKD
modifications: also: biotin label, position not given here
As to B3, the binding result was “binds”.
